# Measured values taken from the nanobody polyreactivity screen of Harvey et al. (2022).
# Test: yeast display, Sf9 membrane polyspecificity reagent, FACS + sequencing; frameworks hold sequencing errors
# Outline: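 Polyreactivity labels are assigned by the sorting gate from which each nanobody was recovered. The gates were low and high (top ~1%), set on anti-HA fluorescence for expression and streptavidin fluorescence for reagent binding. Before sorting, galactose-induced (36–48 hours) yeast display cells were stained for 1 hour at 4 °C with 10% biotinylated, detergent-solubilized Sf9 membrane reagent.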
row,Sequence,polyreactivity (PSR sort gate)
1,QVQLVESGGGLVQAGGSLRLSCAASGITFETYAMGWYRQAPGKERELVAAITYSGGRTYYADSVKGRFTISRDNAKNTVYLQMNSLKPEDTAVYYCNARKYVGFWSRYDYWGQGTQVTVSS,high polyreactivity
2,QVQLVESGGGLVQAGGSLRLSCAASGITFEVNAMGWYRQAPGKERELVAAISRSAGSTYYADSVKGRFTISRDNAKNTVYLQMISLKPEDTAVYYCATALRYARSRNRFYYWGQGTQVSVSS,high polyreactivity
3,QVQLVESGGGLVQAGGSLRLSCAASGITFEVYAMAWYRQAPATERELVAVITSVGSTNYADSVKGRFTISRDNAKNTVYLQMNSLKTEDNAVYYCAGEKWTVRRFNPYTYYRYDYWGQGTQVTVSS,low polyreactivity
4,QVQLVESGGGLVQAGGSLRLSCAASGITFEVYDMGWYRQAPGKERELVAAITWSAGRTYYADSVKGRFTISRDNAKNTVYLQMNSLKPEDTAVYYCAAEVYYYYRTYSYIWNRVDYDYWGQGTQVTVSS,low polyreactivity
5,QVQLVESGGGLVQAGGSLRLSCAASGITFEYYAMGWYRQAPGKERELVAAITWSGGITYYADSVKGRFTISRDNAKNTVYLQMNSLKPEDTAVYYCNVYVSAGEEDEYWGQGTQVTVSS,low polyreactivity
6,QVQLVESGGGLVQAGGSLRLSCAASGITFFGKYAMGWYRQAPGKERELVAAISWSGGRTYYADSVKGRFTISRDNAKNTVYLQMNSLKPEDTAVYYCAVYPRDAERYGYWGQGTQVTVSS,high polyreactivity
7,QVQLVESGGGLVQAGGSLRLSCAASGITFFGYAMGWYRQAPGKERELVAAISYSGGSTYYADSVKGRFTISRDNAKNTVYLQMNSLKPEDTAVYYCNARQAGTRYKYGYYGRYYWGQGTQVTVSS,high polyreactivity
8,QVQLVESGGGLVQAGGSLRLSCAASGITFFLYAMGWYRQAPGKERELVAVISASGGSTYYADSVKGRFTISRDNAKNTVYLQMNSLKPDDTAVYYCNAYGAFIGYDSWGQGTQVTVSS,high polyreactivity
9,QVQLVESGGGLVQAGGSLRLSCAASGITFFRNAMGWYRQAPGKERELVAAISRGGGSTYYADSVKGRFTISRDNAKNTVYLQMNSLKPEDTAVYYCAEYKYGTGVKMDYWGQGTQVTVSS,high polyreactivity
10,QVQLVESGGGLVQAGGSLRLSCAASGITFFRYAMGWYRQAPGKEREFVAAISGRGGSTYYADSVKGRFTISRDNAKNTVYLQMNSLKPEDTAVYYCATRRSYLADYWGQGTQVTVSS,high polyreactivity
11,QVQLVESGGGLVQAGGSLRLSCAASGITFFTYGLGWYRQAPGKERELVASINWSGGTYYADSVKGRFTISRDKAKNTVYLQMNSLKPEDTAVYYCAAETHVESGSRDFYTEDYWGQGTQVTVSS,low polyreactivity
12,QVQLVESGGGLVQAGGSLRLSCAASGITFFWNAMGWYRQAPGKERELVAAISSGAGTTYADSVKGRFTISRDNAKNTVYLQMNSLKPEDTAVYYCAARRYRYAYGPYNYWGQGTQVTVSS,low polyreactivity
13,QVQLVESGGGLVQAGGSLRLSCAASGITFGAYAMGWYRQAPGKERELVASISSSGSTYADSVKGRFTISRDNAKNTVYLQMNSLKPEDTGVYYCNAVGFQANDYNYWGQGTQVTVSS,low polyreactivity
14,QVQLVESGGGLVQAGGSLRLSCAASGITFGDNTMGWYRQAPGKERELVAAITYSSTSTYYADSVKGRFTISRDNPKNTVYLQMNSLKPEDTAVYYCAAEGPVDVVSTDYDYWGQGTQVTVSS,low polyreactivity
15,QVQLVESGGGLVQAGGSLRLSCAASGITFGDYAMGWNRQAPGKERELVAGINWSGDGTYYADSVKGRFTISRDNAKITVYLQMYSLKPEDTAVYYCAAETFYDYGGYDYWGQVTQVTVSS,low polyreactivity
16,QVQLVESGGGLVQAGGSLRLSCAASGITFGDYTMGWYRQAPGKERELVAGINWSGDGTYYADSVKGRFTISRDNAKNTVYLQMNSLKPEDTAVYYCAAETFYDYGGYDYWGQGTQVTVSS,low polyreactivity
17,QVQLVESGGGLVQAGGSLRLSCAASGITFGNYAMGWYRQAPGKERELVAAISQSSGRTYYADSVKGRFTISRDNAKNTVYLQMNSLKPEDTAVYYCAARTRGSSRGDYDYWGQGTQVTVSS,high polyreactivity
18,QVQLVESGGGLVQAGGSLRLSCAASGITFGPNAMGWYRQAPGKERELVAAISWRGGSTYYADSVKGRFTISRDYAKNTVYLQMNSLKPEDTAVYYCAKVQIPASYIRYDYWGQGTQVTVSS,low polyreactivity
19,QVQLVESGGGLVQAGGSLRLSCAASGITFGPYAMGWYRQAPGKERELVAAISSGGRTNYADSVKGRFTISRDNAKNTVYLQMNSLKPEDTAVYYCAARFAYFREYGTYYYWGQGTQVTVSS,high polyreactivity
20,QVQLVESGGGLVQAGGSLRLSCAASGITFGRDAMGWYRQARGKERELVAAISRGSGSTYSADSVKGRFTISRDNAKNTVYLQMHSLKPEDTAVYYCGKVVRVGMGYWGQGTQVTVSS,high polyreactivity
21,QVQLVESGGGLVQAGGSLRLSCAASGITFGRNTMGWSRQAPGKERELVAAIDSGGNTYADSVKGRFTISRDNAKNTVYLQMNSLKPEDTAVYYCAVDGGEFSSYGYWGQGTQVTVSS,low polyreactivity
